Biological target: G protein (Gi) purified from rabbit liver (rabbit)
Assay: cell-based or functional assay

In the case of LSFLIPAGWVLSHLDHYKRSSAA [cytochrome C oxidase subunit peptide-1 (COSP-1)], the “GTPase activity of Gi” value is reported as ~6 fold.

From US7285618 (JAPAN TOBACCO, dated 2007)
